Source: patent US20210230570

What follows are proteins tested against Factor X (FX), P00742.
Chain of Factor X (FX), P00742 (P00742 whole entry, looked up): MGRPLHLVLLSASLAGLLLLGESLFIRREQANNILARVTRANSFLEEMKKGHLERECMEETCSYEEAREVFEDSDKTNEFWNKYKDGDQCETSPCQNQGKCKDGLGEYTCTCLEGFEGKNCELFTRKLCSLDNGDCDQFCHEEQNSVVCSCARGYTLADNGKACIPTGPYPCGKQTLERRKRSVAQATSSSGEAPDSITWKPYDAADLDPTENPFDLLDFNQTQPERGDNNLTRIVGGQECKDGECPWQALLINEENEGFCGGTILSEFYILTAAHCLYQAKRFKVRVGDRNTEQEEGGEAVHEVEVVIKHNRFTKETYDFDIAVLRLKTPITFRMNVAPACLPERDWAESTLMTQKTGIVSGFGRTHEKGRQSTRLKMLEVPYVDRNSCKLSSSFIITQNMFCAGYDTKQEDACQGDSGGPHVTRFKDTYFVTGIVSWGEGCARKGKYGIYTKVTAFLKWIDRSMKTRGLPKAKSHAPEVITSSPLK

Protein	kcat	kcat/KM	KM of FX activation by FIXa in the Xase complex (FVIIIa, PC/PS vesicles, Ca2+)
FIXa-Y155F/K247N/N249S/R338E/T343R/E410N (protein) chain 1: YNSGKLEEFVQGNLERECMEEKCSFEEAREVFENTERTTEFWKQYVDGDQCESNPCLNGGSCKDDINSYECWCPFGFEGKNCELDVTCNIKNGRCEQFCKNSADNKVVCSCTEGYRLAENQKSCEPAVPFPCGRVSVSQTSKLTR chain 2: VVGGEDAKPGQFPWQVVLNGKVDAFCGGSIVNEKWIVTAAHCVETGVKITVVAGEHNIEETEHTEQNRSVIRIIPHHNYNAAINKYNHDIALLELDEPLVLNSYVTPICIADKEYTNIFLKFGSGYVSGWGRVFHKGRSALVLQYLRVPLVDRATCLESTKFRIYNNMFCAGFHEGGRDSCQGDSGGPHVTEVEGTSFLTGIISWGEECAMKGKYGIYTKVSRYVNWIKNKTKLT	4.8 s⁻¹	1.8e+08 M⁻¹ s⁻¹	–
FIXa-K247N/N249S/R338E/T343R/E410N (protein) chain 1: YNSGKLEEFVQGNLERECMEEKCSFEEAREVFENTERTTEFWKQYVDGDQCESNPCLNGGSCKDDINSYECWCPFGFEGKNCELDVTCNIKNGRCEQFCKNSADNKVVCSCTEGYRLAENQKSCEPAVPFPCGRVSVSQTSKLTR chain 2: VVGGEDAKPGQFPWQVVLNGKVDAFCGGSIVNEKWIVTAAHCVETGVKITVVAGEHNIEETEHTEQNRSVIRIIPHHNYNAAINKYNHDIALLELDEPLVLNSYVTPICIADKEYTNIFLKFGSGYVSGWGRVFHKGRSALVLQYLRVPLVDRATCLESTKFRIYNNMFCAGFHEGGRDSCQGDSGGPHVTEVEGTSFLTGIISWGEECAMKGKYGIYTKVSRYVNWIKNKTKLT	7.9 s⁻¹	3.1e+08 M⁻¹ s⁻¹	–
FIXa-Y155F/K247N/N249S/T343R/R403E/E410N (protein) chain 1: YNSGKLEEFVQGNLERECMEEKCSFEEAREVFENTERTTEFWKQYVDGDQCESNPCLNGGSCKDDINSYECWCPFGFEGKNCELDVTCNIKNGRCEQFCKNSADNKVVCSCTEGYRLAENQKSCEPAVPFPCGRVSVSQTSKLTR chain 2: VVGGEDAKPGQFPWQVVLNGKVDAFCGGSIVNEKWIVTAAHCVETGVKITVVAGEHNIEETEHTEQNRSVIRIIPHHNYNAAINKYNHDIALLELDEPLVLNSYVTPICIADKEYTNIFLKFGSGYVSGWGRVFHKGRSALVLQYLRVPLVDRATCLRSTKFRIYNNMFCAGFHEGGRDSCQGDSGGPHVTEVEGTSFLTGIISWGEECAMKGKYGIYTKVSEYVNWIKNKTKLT	15 s⁻¹	2.9e+08 M⁻¹ s⁻¹	–
FIXa-K247N/N249S/T343R/R403E/E410N (protein) chain 1: YNSGKLEEFVQGNLERECMEEKCSFEEAREVFENTERTTEFWKQYVDGDQCESNPCLNGGSCKDDINSYECWCPFGFEGKNCELDVTCNIKNGRCEQFCKNSADNKVVCSCTEGYRLAENQKSCEPAVPFPCGRVSVSQTSKLTR chain 2: VVGGEDAKPGQFPWQVVLNGKVDAFCGGSIVNEKWIVTAAHCVETGVKITVVAGEHNIEETEHTEQNRSVIRIIPHHNYNAAINKYNHDIALLELDEPLVLNSYVTPICIADKEYTNIFLKFGSGYVSGWGRVFHKGRSALVLQYLRVPLVDRATCLRSTKFRIYNNMFCAGFHEGGRDSCQGDSGGPHVTEVEGTSFLTGIISWGEECAMKGKYGIYTKVSEYVNWIKNKTKLT	8 s⁻¹	1.3e+08 M⁻¹ s⁻¹	–
FIXa-Y155F/R318Y/R338E/T343R (protein) chain 1: YNSGKLEEFVQGNLERECMEEKCSFEEAREVFENTERTTEFWKQYVDGDQCESNPCLNGGSCKDDINSYECWCPFGFEGKNCELDVTCNIKNGRCEQFCKNSADNKVVCSCTEGYRLAENQKSCEPAVPFPCGRVSVSQTSKLTR chain 2: VVGGEDAKPGQFPWQVVLNGKVDAFCGGSIVNEKWIVTAAHCVETGVKITVVAGEHNIEETEHTEQKRNVIRIIPHHNYNAAINKYNHDIALLELDEPLVLNSYVTPICIADKEYTNIFLKFGSGYVSGWGRVFHKGYSALVLQYLRVPLVDRATCLESTKFRIYNNMFCAGFHEGGRDSCQGDSGGPHVTEVEGTSFLTGIISWGEECAMKGKYGIYTKVSRYVNWIKEKTKLT	7.9 s⁻¹	3.6e+08 M⁻¹ s⁻¹	–
FIXa-R318Y/R338E/T343R (protein) chain 1: YNSGKLEEFVQGNLERECMEEKCSFEEAREVFENTERTTEFWKQYVDGDQCESNPCLNGGSCKDDINSYECWCPFGFEGKNCELDVTCNIKNGRCEQFCKNSADNKVVCSCTEGYRLAENQKSCEPAVPFPCGRVSVSQTSKLTR chain 2: VVGGEDAKPGQFPWQVVLNGKVDAFCGGSIVNEKWIVTAAHCVETGVKITVVAGEHNIEETEHTEQKRNVIRIIPHHNYNAAINKYNHDIALLELDEPLVLNSYVTPICIADKEYTNIFLKFGSGYVSGWGRVFHKGYSALVLQYLRVPLVDRATCLESTKFRIYNNMFCAGFHEGGRDSCQGDSGGPHVTEVEGTSFLTGIISWGEECAMKGKYGIYTKVSRYVNWIKEKTKLT	4.5 s⁻¹	1.5e+08 M⁻¹ s⁻¹	–
FIXa-Y155F/R318Y/T343R/R403E (protein) chain 1: YNSGKLEEFVQGNLERECMEEKCSFEEAREVFENTERTTEFWKQYVDGDQCESNPCLNGGSCKDDINSYECWCPFGFEGKNCELDVTCNIKNGRCEQFCKNSADNKVVCSCTEGYRLAENQKSCEPAVPFPCGRVSVSQTSKLTR chain 2: VVGGEDAKPGQFPWQVVLNGKVDAFCGGSIVNEKWIVTAAHCVETGVKITVVAGEHNIEETEHTEQKRNVIRIIPHHNYNAAINKYNHDIALLELDEPLVLNSYVTPICIADKEYTNIFLKFGSGYVSGWGRVFHKGYSALVLQYLRVPLVDRATCLRSTKFRIYNNMFCAGFHEGGRDSCQGDSGGPHVTEVEGTSFLTGIISWGEECAMKGKYGIYTKVSEYVNWIKEKTKLT	5 s⁻¹	7.1e+07 M⁻¹ s⁻¹	–
FIXa-Y155F/T343R/R403E/E410N (protein) chain 1: YNSGKLEEFVQGNLERECMEEKCSFEEAREVFENTERTTEFWKQYVDGDQCESNPCLNGGSCKDDINSYECWCPFGFEGKNCELDVTCNIKNGRCEQFCKNSADNKVVCSCTEGYRLAENQKSCEPAVPFPCGRVSVSQTSKLTR chain 2: VVGGEDAKPGQFPWQVVLNGKVDAFCGGSIVNEKWIVTAAHCVETGVKITVVAGEHNIEETEHTEQKRNVIRIIPHHNYNAAINKYNHDIALLELDEPLVLNSYVTPICIADKEYTNIFLKFGSGYVSGWGRVFHKGRSALVLQYLRVPLVDRATCLRSTKFRIYNNMFCAGFHEGGRDSCQGDSGGPHVTEVEGTSFLTGIISWGEECAMKGKYGIYTKVSEYVNWIKNKTKLT	6.6 s⁻¹	1.5e+08 M⁻¹ s⁻¹	–
FIXa variant R338E/R403E/E410N (mature FIX numbering) (protein) chain 1: YNSGKLEEFVQGNLERECMEEKCSFEEAREVFENTERTTEFWKQYVDGDQCESNPCLNGGSCKDDINSYECWCPFGFEGKNCELDVTCNIKNGRCEQFCKNSADNKVVCSCTEGYRLAENQKSCEPAVPFPCGRVSVSQTSKLTR chain 2: VVGGEDAKPGQFPWQVVLNGKVDAFCGGSIVNEKWIVTAAHCVETGVKITVVAGEHNIEETEHTEQKRNVIRIIPHHNYNAAINKYNHDIALLELDEPLVLNSYVTPICIADKEYTNIFLKFGSGYVSGWGRVFHKGRSALVLQYLRVPLVDRATCLESTKFTIYNNMFCAGFHEGGRDSCQGDSGGPHVTEVEGTSFLTGIISWGEECAMKGKYGIYTKVSEYVNWIKNKTKLT	–	–	0.0367 µM
FIXa variant Y155F/R338E/R403E/E410N (mature FIX numbering) (protein) chain 1: YNSGKLEEFVQGNLERECMEEKCSFEEAREVFENTERTTEFWKQYVDGDQCESNPCLNGGSCKDDINSYECWCPFGFEGKNCELDVTCNIKNGRCEQFCKNSADNKVVCSCTEGYRLAENQKSCEPAVPFPCGRVSVSQTSKLTR chain 2: VVGGEDAKPGQFPWQVVLNGKVDAFCGGSIVNEKWIVTAAHCVETGVKITVVAGEHNIEETEHTEQKRNVIRIIPHHNYNAAINKYNHDIALLELDEPLVLNSYVTPICIADKEYTNIFLKFGSGYVSGWGRVFHKGRSALVLQYLRVPLVDRATCLESTKFTIYNNMFCAGFHEGGRDSCQGDSGGPHVTEVEGTSFLTGIISWGEECAMKGKYGIYTKVSEYVNWIKNKTKLT	–	–	0.0336 µM
FIXa variant R318Y/R338E/R403E (mature FIX numbering) (protein) chain 1: YNSGKLEEFVQGNLERECMEEKCSFEEAREVFENTERTTEFWKQYVDGDQCESNPCLNGGSCKDDINSYECWCPFGFEGKNCELDVTCNIKNGRCEQFCKNSADNKVVCSCTEGYRLAENQKSCEPAVPFPCGRVSVSQTSKLTR chain 2: VVGGEDAKPGQFPWQVVLNGKVDAFCGGSIVNEKWIVTAAHCVETGVKITVVAGEHNIEETEHTEQKRNVIRIIPHHNYNAAINKYNHDIALLELDEPLVLNSYVTPICIADKEYTNIFLKFGSGYVSGWGRVFHKGYSALVLQYLRVPLVDRATCLESTKFTIYNNMFCAGFHEGGRDSCQGDSGGPHVTEVEGTSFLTGIISWGEECAMKGKYGIYTKVSEYVNWIKEKTKLT	–	–	0.0597 µM
FIXa variant Y155F/R318Y/R338E/R403E (mature FIX numbering) (protein) chain 1: YNSGKLEEFVQGNLERECMEEKCSFEEAREVFENTERTTEFWKQYVDGDQCESNPCLNGGSCKDDINSYECWCPFGFEGKNCELDVTCNIKNGRCEQFCKNSADNKVVCSCTEGYRLAENQKSCEPAVPFPCGRVSVSQTSKLTR chain 2: VVGGEDAKPGQFPWQVVLNGKVDAFCGGSIVNEKWIVTAAHCVETGVKITVVAGEHNIEETEHTEQKRNVIRIIPHHNYNAAINKYNHDIALLELDEPLVLNSYVTPICIADKEYTNIFLKFGSGYVSGWGRVFHKGYSALVLQYLRVPLVDRATCLESTKFTIYNNMFCAGFHEGGRDSCQGDSGGPHVTEVEGTSFLTGIISWGEECAMKGKYGIYTKVSEYVNWIKEKTKLT	–	–	0.0671 µM
FIXa variant D203N/F205T/K228N (mature FIX numbering) (protein) chain 1: YNSGKLEEFVQGNLERECMEEKCSFEEAREVFENTERTTEFWKQYVDGDQCESNPCLNGGSCKDDINSYECWCPFGFEGKNCELDVTCNIKNGRCEQFCKNSADNKVVCSCTEGYRLAENQKSCEPAVPFPCGRVSVSQTSKLTR chain 2: VVGGEDAKPGQFPWQVVLNGKVNATCGGSIVNEKWIVTAAHCVETGVNITVVAGEHNIEETEHTEQKRNVIRIIPHHNYNAAINKYNHDIALLELDEPLVLNSYVTPICIADKEYTNIFLKFGSGYVSGWGRVFHKGRSALVLQYLRVPLVDRATCLRSTKFTIYNNMFCAGFHEGGRDSCQGDSGGPHVTEVEGTSFLTGIISWGEECAMKGKYGIYTKVSRYVNWIKEKTKLT	–	–	0.0399 µM
FIXa variant D203N/F205T/E410N (mature FIX numbering) (protein) chain 1: YNSGKLEEFVQGNLERECMEEKCSFEEAREVFENTERTTEFWKQYVDGDQCESNPCLNGGSCKDDINSYECWCPFGFEGKNCELDVTCNIKNGRCEQFCKNSADNKVVCSCTEGYRLAENQKSCEPAVPFPCGRVSVSQTSKLTR chain 2: VVGGEDAKPGQFPWQVVLNGKVNATCGGSIVNEKWIVTAAHCVETGVKITVVAGEHNIEETEHTEQKRNVIRIIPHHNYNAAINKYNHDIALLELDEPLVLNSYVTPICIADKEYTNIFLKFGSGYVSGWGRVFHKGRSALVLQYLRVPLVDRATCLRSTKFTIYNNMFCAGFHEGGRDSCQGDSGGPHVTEVEGTSFLTGIISWGEECAMKGKYGIYTKVSRYVNWIKNKTKLT	–	–	0.0455 µM
